Experimental data published in patent publication US11312769B2, “Anti-TMEFF1 antibodies and antibody drug conjugates” (Bluefin BioMedicine, Inc., priority 2017, dated 2022).

B1: 36H6: human anti-TMEFF1 IgG1 antibody; VH SEQ ID NO: 43, VL SEQ ID NO: 47 (antibody, V domains shown)
VH: QVQLVESGGGVVQPGRSLRLSCAASGFTFSDYGMHWVRQAPGKGLEWVAVIWYEGGNKYYTDSVKGRFTISRDNSKNTLYLQMNSLRAEDTAVYYCARILLWFGESYGMDVWGQGTTVTVSS
VL: DIQMTQSPSSLSASVGDRVTITCRASQGISNYLAWYQQKPGKVPKLLIYAASTLQSGVPSRFSGSGSGTDFTLTISSLQPEDVATYYCQKYNNAPWTFGQGTKVEIK
B2: 31B7: human anti-TMEFF1 IgG1 antibody; VH SEQ ID NO: 17, VL SEQ ID NO: 21 (antibody, V domains shown)
VH: QVQLVESGGGVVQPGRSLRLSCAASGFTFSSYGMHWVRQAPGKGLEWVAVIWYNGINKYYADSVKGRFTISRDASKNTLYLQMNSLRAEDTAVYYCAREGLLWFGGMDVWGQGTTVTVSS
VL: EIVLTQSPLSLPVTPGEPASISCRSSQSLLHSNGYNYLHWYLQKPGQSPQLLIYLGSNRASGVPDRFSGSRSGTDFTLKIIRVEAEDVGVYYCMQALQTPYTFGQGTKLEIK
B3: 24F10: human anti-TMEFF1 IgG1 antibody; VH SEQ ID NO: 33, VL SEQ ID NO: 36 (antibody, V domains shown)
VH: QVQLVESGGGVVQPGRSLRLSCAASGFTFSSYGMHWVRQAPGKGLEWVAVIWYDGSDKYYTDSVKGRFTISRDNSKNTLYLQMNSLRAEDTAVYYCARESMVRGIVITFFDYWGQGTLVTVSS
VL: EIVMTQSPATLSVSPGERATLSCRASQSVSSNLAWYQQKPGQAPRLLIYGASTRATGIPARFSGSGSGTEFTLTISSLQSEDFAVYSCQHYNNWPPTFGGGTKVEIK

target: T1, recombinant TMEFF1 (Homo sapiens, UniProt Q8IYR6); experiment: Binding competition binning (Octet); details: seven antibodies, 3 bins
T1 construct: generated to secrete the ECD from CHO cells to assist with biophysical evaluations; His tag (C); made in house; host or cells: CHO (ExpiCHO)
T1 sequence (Q8IYR6 40-330 limits assumed): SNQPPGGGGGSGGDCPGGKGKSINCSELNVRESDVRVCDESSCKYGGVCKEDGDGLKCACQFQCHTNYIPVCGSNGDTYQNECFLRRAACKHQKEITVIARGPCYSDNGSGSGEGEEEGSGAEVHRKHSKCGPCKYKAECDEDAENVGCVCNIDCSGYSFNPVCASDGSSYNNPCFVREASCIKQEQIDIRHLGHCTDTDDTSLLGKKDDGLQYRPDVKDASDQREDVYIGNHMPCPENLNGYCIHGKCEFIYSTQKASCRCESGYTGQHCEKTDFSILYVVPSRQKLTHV
Description: Binding competition among different antibodies was determined using a real-time, interferometry assay on an Octet Red™ instrument with Protein A-conjugated biosensors. To assess whether two antibodies competed for binding to a recombinant TMEFF1 protein, the assay was performed as follows. Protein A biosensors were first submerged into wells containing 10 ug/mL of individual monoclonal antibodies for 5 minutes. Following the capture step, the biosensors were dipped briefly (15 seconds) into buffer and then any unoccupied sites on the biosensor were saturated by submerging them for 5 minutes into wells containing 100 ug/mL of an irrelevant monoclonal antibody. The Octet biosensors were then dipped briefly (15 seconds) in buffer before immersion for 1 minute into wells containing recombinant TMEFF1. The biosensors were dipped briefly (15 seconds) in buffer before immersion for 1 minute into wells containing a second recombinant antibody.
For the control case where the second antibody was the same as the first, there was no increase in signal, because there was no additional binding to the recombinant target.
For the control case where buffer was used instead of the first antibody, no recombinant target bound the non-quenching antibody on the biosensor and no second antibody bound the biosensor.
Competition binning using Octet™ was done with seven antibodies and 3 separate bins were identified.

| Molecule | Competition binning (epitope bin) |
| --- | --- |
| B1 | compete with each other and bind FS1 |
| B2 | bind a region different from FS1 or FS2 and compete with each other |
| B3 | compete with each other and bind FS1 |

test system: hTMEFF1-ECD recombinant deletion mutants; experiment: Binding domain determination with hTMEFF1-ECD deletion mutants (Octet); parameters: species or system human; key: FS1—follistatin domain 1; FS2—follistatin domain 2; details: full length TMEFF1 ECD vs ΔFS1, ΔFS2, ΔFS1&FS2
Excerpt: TMEFF1 recombinant proteins expressing 3 different deletion mutants, AFS1 (AFollistatin Domain 1), AFS2 (AFollistatin Domain 2) or AFS1&FS2 were used to identify binding domains among different antibodes using an Octet Red instrument with Anti-Penta-His (HIS 1K) biosensors. Expression of the 3 deletion mutants was confirmed by WB analysis. 100 ngs of purified TMEFF1 ECD was run along with unpurified supernatant of transfected CHO cells with the different deletion mutants. HIS 1K biosensors were loaded by submerging the biosensors into wells containing 10 ug/ml of full length TMEFF1 or one of 3 different deletion mutants (AFS1, AFS2 or AFS1&FS2) for 60 seconds. Following the loading step, the biosensors were then dipped for 30 seconds in PBS before immersion for 30 seconds in 200 ul of unpurified recombinant antibodies for 30 seconds. The biosensors were then dipped briefly (30 seconds) in PBS to observe any dissociation. Samples were determined to show binding or no binding by comparing to a control well that contained no recombinant antibody. Differential binding to the deletion mutants allowed for determination of binding sites on TMEFF1 recombinant protein. For cases where the antibody bound all 3 recombinant proteins, the binding is outside of the deleted domains. For the case where binding is observed only on full length TMEFF1 and AFS2, the antibody is binding in the ΔFS1 domain.
26 of the identified antibodies were checked for epitope domain binding by Octet™ using the hTMEFF1-ECD recombinant deletion mutants (see Table 7, below).

| Molecule | Binding region (epitope domain binding) |
| --- | --- |
| B1 | FS1 |
| B2 | other |
| B3 | FS1 |

test system: 293-hTMEFF1 cells; experiment: Flow based antibody internalization assay; assay type: cell-based, human; details: 293-hTMEFF1 fixed with PFA, antibody 1 ug/ml, 30-120 min
Description: For Flow based internalization assay, 293-hTMEFF1 cells were collected and either fixed with 4% paraformaldehyde (PFA) for 20 minutes at 37° C. or kept live on ice. Cells were then incubated on ice for 40 minutes with anti-TMEFF1 antibody at 1 ug/ml, washed 2× with ice cold PBS, resuspended in complete warm media and incubated at 37° C. for 30, 60 or 120 minutes. Live cells were then fixed at those time points, washed 2× with PBS and labeled with fluorescent conjugated secondary antibody for 30 minutes on ice.
Antibody mediated TMEFF1 internalization was evaluated by Flow cytometry with five human anti-TMEFF1 antibodies in 293-hTMEFF1 cells. Fixed cells were treated with the antibody as a control of antibody loss due to detachment rather than internalization which would result in reduce signal. Thus a constant signal over time in fixed cells and a loss of signal in live cells would indicate antibody internalization. […] In live cells, it was observed that most antibodies show about a 50% internalization by 30 min of treatment (FIG. 1B).

| Molecule | Cell surface binding in fixed cells over the duration of the assay |
| --- | --- |
| B1 | consistent cell surface binding in fix cells |
| B2 | consistent cell surface binding in fix cells |
| B3 | consistent cell surface binding in fix cells |
